Assay type in all cases: cell-based
Assay [1] has as its system monocytes. Nature of the assay: monocyte chemotaxis test. The conditions noted are these: membrane pore size 8 μm, PBS negative control, MCP-1 positive control, FIG. 8. The procedure:
(§1) The eosinophil chemotaxis was measured by following the method described in the reference (Lymphokine Cytokine Res. 10, 481-486, 1991; Lymphokine Cytokine Res. 11, 331-338, 1992). Specifically, eosinophils of CD16- were purified from the peripheral blood of normal volunteers by discontinuous density-gradient method using Percoll (Pharmacia, Picataway, N.J.), and the following anti-CD16 immunoglobulin (DAKO. A. S, Glostrup, Denmark) magnetic antibody treatment. Purity of the obtained eosinophils was 97% or higher, and living cells were 95%. Chemotaxis was measured using a bilayered 48-well plate (NeuroProbe, Cabin John, Md.) mediated through a polyvinylpyrrolidone-free membrane (a standard pore size of 5 micron). Chemotactic factors in various concentration, and 0.5×10^6 to 1×10^6 cells/ml human eosinophils were placed on the lower and upper layers, respectively, and incubated under 5% carbon dioxide at 37° C. for 1 to 2 hours. Then the membrane separating two plates was removed, and eosinophils were stained by placing them in DiffQuick stain (Baxter Health Care, McGaw Park, Ill.) to count the eosinophils which were passing through the membrane under a microscope. All assays were conducted three times.
(§2) The similar experiments were conducted in regard to lymphocytes (FIG. 7) and monocytes (FIG. 8). Pore sizes of the membranes are 3 and 8 μm, respectively. […]

Assay [2] deals with lymphocytes. Nature of the assay: lymphocyte chemotaxis test. The conditions noted are these: membrane pore size 3 μm; PBS negative control, lymphotactin positive control; FIG. 7. The procedure: as §1, §2
Assay [3] deals with neutrophils. Nature of the assay: neutrophil chemotaxis test. Conditions: PBS negative control, IL-8 positive control; FIG. 6.
The subject of assay [4] is human eosinophils. Nature of the assay: eosinophil chemotaxis (ECA) test, bilayered 48-well chamber. The procedure:
as §1
As a positive control, human C5a (Sigma, Saint Louis, Mo.), IL-5 (Genzyme, Cambridge, Mass.), RANTES (Genzyme), and eotaxin-1 (Seikagaku-Kogyo, Tokyo) were used. […]

Entries after “also recorded” stand apart in the source; their conditions may differ.

B1: ecalectin: eosinophil-specific chemotactic factor, 323 amino acid protein of SEQ ID NO: 2, similar to galectin-9; recombinant from Sf9 insect cells (protein, listed as Homo sapiens)
chain: MAFSSSQAPYLSPAVPFSGTIQGGLQDGLQITVNGTVLSSSGTRFAVNFQTGFSGNDIAFHFNPRFEDGGYVVCNTRQNGSWGPEERKTHMPFQKGMPFDLCFLVQSSDFKVMVNGILFVQYFHRVPFHRVDTISVNGSVQLSYISFQPPGVWPANPAPITQTVIHTVQSAPGQMFSTPAIPPMMYPHPAYPMPFITTILGGLYPSKSILLSGTVLPSAQRFHINLCSGNHIAFHLNPRFDENAVVRNTQIDNSWGSEERSLPRKMPFVRGQSFSVWILCEAHCLKVAVDGQHLFEYYHRLRNLPTINRLEVGGDIQLTHVQT
On to B1, for which the monocyte chemotactic activity entry is recorded as “no chemotactic activity; also recorded: low or absent” in assay [1] and “does not cause monocyte chemotaxis” in assay [1] (listed as recombinant ecalectin). In addition, the lymphocyte chemotactic activity result in assay [2] was “no chemotactic activity; also recorded: low or absent; also recorded: does not cause lymphocyte chemotaxis”. Further, the neutrophil chemotactic activity entry in assay [3] was “no or little neutrophil chemotactic activity; also recorded: low or absent; also recorded: does not cause neutrophil chemotaxis”. In assay [4] (eosinophils versus neutrophils, lymphocytes, monocytes, FIGS. 5-8), the “specificity of chemotactic activity” value was “specific to eosinophils”. In assay [4] (recombinant ecalectin purified from Sf9 insect cells, stained eosinophils passing through 5 micron membrane, FIG. 5), the eosinophil chemotactic activity entry was “strong eosinophil chemotactic activity concentration-dependently; also recorded: concentration-dependent eosinophil chemotactic activity”.
